# Key:
# [1] = biological target: cynomolgus monkey IL-17A (Macaca fascicularis); experiment: SPR
# ixekizumab (human) = experiment: SPR
Substance,Kd [1] [nM],"KD, heterogeneous ligand model, first set (ixekizumab (human)) [nM]","KD, heterogeneous ligand model, second set (ixekizumab (human)) [nM]","koff, heterogeneous ligand model, first set (ixekizumab (human)) [s⁻¹]","koff, heterogeneous ligand model, second set (ixekizumab (human)) [s⁻¹]","kon, heterogeneous ligand model, first set (ixekizumab (human)) [M⁻¹ s⁻¹]"
ixekizumab (antibody),0.0008,–,–,–,–,–
rabbit IL-17A (ligand),–,1.3,14,0.00017,0.11,150000
